Results on 1 molecule are retold here after publication PMC9009768 (PLoS Pathogens, 2022).

This assay concerns the target T1, His-tagged PIAS1 (human, UniProt O75925 1-651).
T1 construct: also called His-PIAS1; purified PIAS1
The assay can be described thus: pull-down. The note with it: both partners purified.

T1 sequence (O75925 whole entry): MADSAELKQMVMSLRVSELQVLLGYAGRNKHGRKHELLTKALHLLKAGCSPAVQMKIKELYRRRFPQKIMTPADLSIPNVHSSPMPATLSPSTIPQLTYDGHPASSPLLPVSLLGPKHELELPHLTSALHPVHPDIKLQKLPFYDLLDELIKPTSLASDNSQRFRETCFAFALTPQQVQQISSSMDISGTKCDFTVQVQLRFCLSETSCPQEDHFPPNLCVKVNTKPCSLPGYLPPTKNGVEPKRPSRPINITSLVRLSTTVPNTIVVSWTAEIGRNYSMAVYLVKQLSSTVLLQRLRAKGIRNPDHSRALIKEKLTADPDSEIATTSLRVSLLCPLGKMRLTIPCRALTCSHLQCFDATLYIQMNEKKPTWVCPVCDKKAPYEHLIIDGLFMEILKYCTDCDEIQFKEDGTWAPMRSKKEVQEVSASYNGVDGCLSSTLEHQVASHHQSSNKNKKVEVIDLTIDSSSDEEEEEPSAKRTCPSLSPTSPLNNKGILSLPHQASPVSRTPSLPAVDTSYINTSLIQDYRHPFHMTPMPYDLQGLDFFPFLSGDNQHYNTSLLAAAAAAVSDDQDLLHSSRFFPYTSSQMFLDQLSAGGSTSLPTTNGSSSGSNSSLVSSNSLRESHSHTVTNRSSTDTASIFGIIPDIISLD

B1: GST-WSNNP (natural protein)
chain: MATKGTKRSYEQMETDGERQNATEIRASVGKMIGGIGRFYIQMCTELKLSDYEGRLIQNSLTIERMVLSAFDERRNKYLEEHPSAGKDPKKTGGPIYRRVDGKWMRELILYDKEEIRRIWRQANNGDDATAGLTHMMIWHSNLNDATYQRTRALVRTGMDPRMCSLMQGSTLPRRSGAAGAAVKGVGTMVMELIRMIKRGINDRNFWRGENGRRTRIAYERMCNILKGKFQTAAQRAMVDQVRESRNPGNAEFEDLIFLARSALILRGSVAHKSCLPACVYGPAVASGYDFEREGYSLVGIDPFRLLQNSQVYSLIRPNENPAHKSQLVWMACHSAAFEDLRVSSFIRGTKVVPRGKLSTRGVQIASNENMETMESSTLELRSRYWAIRTRSGGNTNQQRASSGQISIQPTFSVQRNLPFDRPTIMAAFTGNTEGRTSDMRTEIIRLMESARPEDVSFQGRGVFELSDEKAASPIVPSFDMSNEGSYFFGDNAEEYDN
For B1, the binding result was “binds”.
